According to publication PMC7337384:

Biological target: RaTG13 S-protein receptor-binding domain fused to the Fc domain of human IgG1 (bat coronavirus RaTG13)
Assay: SPR

For “soluble monomeric human ACE2-NN (enzymatically inactive human ACE2 lacking its active-site histidines) (domain or fragment)”, the Kd was > 35 µM.
